For 2 substances, stoichiometry N results are on record in article PMC5495134.

Test [1] has as its target Mth1491 homotrimer with a cysteine introduced at position 92, tagged, azo-cleaved, AF-labelled and protected with Ellman's reagent (Methanobacterium thermoautotrophicum). The test is described as follows: dynamic light scattering; average particle size before and after protection with Ellman's reagent (5.5 ± 0.3 nm to 7.4 ± 0.9 nm). A general note: DTNB colorimetry detects thiols as they appear.

Test [2] concerns the target Mth1491 homotrimer with a cysteine introduced at position 92, modified with azo maleimide 3 (Methanobacterium thermoautotrophicum). In words: affinity chromatography on beta-cyclodextrin resin with LC-MS of fractions; Mth1491 modified to about 50% with azo maleimide 3, eluted from a column packed with resin 4 (beta-cyclodextrin on sepharose CL-4B); four peaks for the modification states of the trimer; isolated singly and doubly modified species repurified; trimer disassembles upon LC-MS.

What is called stoichiometry N is a count of units in the complex or per binding partner.

“Mth1491 homotrimer with a cysteine introduced at position 92, tagged, azo-cleaved, AF-labelled and protected with Ellman's reagent (natural protein)”: in test [1], the stoichiometry N is 3.

In test [2], “Mth1491 homotrimer with a cysteine introduced at position 92, modified with azo maleimide 3 (natural protein)” yielded a stoichiometry N of 3.
